Measurements from US20170342107A1.
Square brackets hold non-standard residues; d marks the D form. Phe(4-I) = N[C@@H](Cc1ccc(I)cc1)C(=O)O

Experiments:
[1] = target: mouse melanocortin-3 receptor (mouse) (UniProt P33033); test: cell-based or functional assay
[2] = target: mouse melanocortin-4 receptor (mouse) (UniProt P56450); test: cell-based or functional assay
[3] = target: mouse melanocortin-3 receptor (mouse) (UniProt P33033); test: 125I-NDP-MSH competitive displacement, HEK293 cells stably expressing mMC3R
[4] = target: mouse melanocortin-4 receptor (mouse) (UniProt P56450); test: 125I-NDP-MSH competitive displacement, HEK293 cells stably expressing mMC4R
[5] = target: mouse melanocortin-4 receptor (mouse) (UniProt P56450); test: 125I-NDP-MSH competitive displacement, HEK293 cells stably expressing mMC4R; here negative = weaker binder than SKY4-48-1

mouse melanocortin-4 receptor (mouse), sequence (P56450 whole entry): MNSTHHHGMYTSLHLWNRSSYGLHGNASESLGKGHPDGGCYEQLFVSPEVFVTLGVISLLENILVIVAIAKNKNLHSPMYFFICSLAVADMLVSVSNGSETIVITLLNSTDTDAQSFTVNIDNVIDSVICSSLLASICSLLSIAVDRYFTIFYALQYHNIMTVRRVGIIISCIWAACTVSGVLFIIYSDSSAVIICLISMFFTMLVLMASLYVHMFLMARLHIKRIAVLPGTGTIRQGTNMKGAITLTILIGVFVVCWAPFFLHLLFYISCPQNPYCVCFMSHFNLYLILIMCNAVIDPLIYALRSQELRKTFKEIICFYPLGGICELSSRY
mouse melanocortin-3 receptor (mouse), sequence (P33033 whole entry): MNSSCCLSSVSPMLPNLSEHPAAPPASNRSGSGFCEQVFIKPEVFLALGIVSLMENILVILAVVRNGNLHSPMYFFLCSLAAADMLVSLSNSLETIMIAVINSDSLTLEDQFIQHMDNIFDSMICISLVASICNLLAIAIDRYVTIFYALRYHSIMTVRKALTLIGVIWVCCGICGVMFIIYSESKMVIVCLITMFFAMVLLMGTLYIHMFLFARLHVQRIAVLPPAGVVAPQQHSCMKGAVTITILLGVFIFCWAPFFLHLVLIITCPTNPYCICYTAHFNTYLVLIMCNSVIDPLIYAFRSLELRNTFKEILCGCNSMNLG

Agonist Activity EC50 [1]: > 100 µM | Antagonist Activity K [1]: 400 nM | Antagonist Ki [1]: 0.398 µM | pA2 (antagonist) [1]: 6.4 pA2 | Agonist Activity, % stimulation relative to maximum [2]: 16 % @ 100 µM | Agonist, % of NDP-MSH maximal response [2]: 16 % @ 100 µM | Antagonist Ki [2]: > 3.1 µM | Fold Diff. (IC50 against SKY4-48-1) [3]: 14 fold | IC50 [3]: 3.5 µM | IC50 [4]: 39.5 µM | Fold Diff. (IC50 against SKY4-48-1) [5]: -326 fold
B1: SKY5-122-2, Ac-DPhe-(pI)Phe-DArg-DHis-NH2 (peptide)
peptide: Ac-[dF][Phe(4-I)][dR][dH]-NH2
SMILES: CC(=O)N[C@H](Cc1ccccc1)C(=O)N[C@@H](Cc1ccc(I)cc1)C(=O)N[C@H](CCCNC(=N)N)C(=O)N[C@H](Cc1c[nH]cn1)C(N)=O
